Experiments:
Assay in all cases: cell-based or functional assay
[1] = biological target: T1, I1^C: IMPDH1^C-[C-extein]linker-Trx-EFRSHHHHHH fusion protein
T1 chain: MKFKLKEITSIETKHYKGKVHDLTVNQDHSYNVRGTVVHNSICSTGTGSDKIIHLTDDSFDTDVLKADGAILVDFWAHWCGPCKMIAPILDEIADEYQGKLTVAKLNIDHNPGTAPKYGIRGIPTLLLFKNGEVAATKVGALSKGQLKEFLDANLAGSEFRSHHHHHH

[2] = biological target: T1, I1^C: …
[3] = biological target: T1, I1^C: …
[4] = biological target: T2, G1^C: Gp41.1^C-[C-extein]linker-Trx-EFRSHHHHHH fusion protein
T2 chain: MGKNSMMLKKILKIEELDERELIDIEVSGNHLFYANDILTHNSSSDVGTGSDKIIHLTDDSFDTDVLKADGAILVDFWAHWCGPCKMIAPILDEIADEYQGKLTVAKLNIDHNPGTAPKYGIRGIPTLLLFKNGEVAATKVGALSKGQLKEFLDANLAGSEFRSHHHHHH

[5] = biological target: T2, G1^C: …
[6] = biological target: T2, G1^C: …
[7] = biological target: T3, N1^C: NrdJ1^C-[C-extein]linker-Trx-EFRSHHHHHH fusion protein
T3 chain: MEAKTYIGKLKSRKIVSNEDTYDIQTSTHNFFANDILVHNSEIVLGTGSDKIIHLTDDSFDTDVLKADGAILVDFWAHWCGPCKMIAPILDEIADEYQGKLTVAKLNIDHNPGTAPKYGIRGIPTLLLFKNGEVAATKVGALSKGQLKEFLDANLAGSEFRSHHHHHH

[8] = biological target: T3, N1^C: …
[9] = biological target: T3, N1^C: …
[10] = biological target: T4, G8^C: Gp41.8^C-[C-extein]linker-Trx-EFRSHHHHHH fusion protein
T4 chain: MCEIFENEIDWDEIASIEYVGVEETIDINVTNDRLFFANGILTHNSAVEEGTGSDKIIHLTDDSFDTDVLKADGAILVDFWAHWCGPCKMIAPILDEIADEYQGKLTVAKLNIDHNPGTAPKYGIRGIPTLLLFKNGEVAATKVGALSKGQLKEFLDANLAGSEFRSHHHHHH

[11] = biological target: T4, G8^C: …
[12] = biological target: T4, G8^C: …

B1: I1^N: StreptagII-gpD-linker[N-extein]-IMPDH1^N-GGHHHHHH fusion protein (other)
chain: MASWSHPQFEKASKETFTHYQPQGNSDPAHTATAPGGLSAKAPAMTPLMLDTSSRKLVAWDGTTDGAAVGILAVAADQTSTTLTFYKSGTFRYEDVLWPEAASDETKKRTAFAGTAISIVGSGIGGGCFVPGTLVNTENGLKKIEEIKVGDKVFSHTGKLQEVVDTLIFDRDEEIISINGIDCTKNHEFYVIDKENANRVNEDNIHLFARWVHAEELDMKKHLLIELEGGHHHHHH
- splice product formation at 5 minutes, 25 °C [1]: ~90%
- trans-splicing speed, fold faster than Npu DnaE, 25 °C [1]: 7 fold
- trans-splicing first order rate constant k, 25 °C [2]: 0.02 s⁻¹
- trans-splicing t1/2, 25 °C [2]: 0.567 min

B2: I1^N(C1A): StreptagII-gpD-linker[N-extein]-IMPDH1^N(C1A)-GGHHHHHH fusion protein (other)
chain: MASWSHPQFEKASKETFTHYQPQGNSDPAHTATAPGGLSAKAPAMTPLMLDTSSRKLVAWDGTTDGAAVGILAVAADQTSTTLTFYKSGTFRYEDVLWPEAASDETKKRTAFAGTAISIVGSGIGGGAFVPGTLVNTENGLKKIEEIKVGDKVFSHTGKLQEVVDTLIFDRDEEIISINGIDCTKNHEFYVIDKENANRVNEDNIHLFARWVHAEELDMKKHLLIELEGGHHHHHH
- C-terminal cleavage k, 25 °C [3]: 0.000365 s⁻¹
- C-terminal cleavage t1/2, 25 °C [3]: 31.6 min

B3: G1^N: StreptagII-gpD-linker[N-extein]-Gp41.1^N-GGHHHHHH fusion protein (other)
chain: MASWSHPQFEKASKETFTHYQPQGNSDPAHTATAPGGLSAKAPAMTPLMLDTSSRKLVAWDGTTDGAAVGILAVAADQTSTTLTFYKSGTFRYEDVLWPEAASDETKKRTAFAGTAISIVGSTRSGYCLDLKTQVQTPQGMKEISNIQVGDLVLSNTGYNEVLNVFPKSKKKSYKITLEDGKEIICSEEHLFPTQTGEMNISGGLKEGMCLYVKEGGHHHHHH
- splice product formation at 5 minutes, 25 °C [4]: ~90%
- trans-splicing activity in 4 M urea after 1 hour, relative to optimized conditions [4]: ~50%
- trans-splicing activity, fold faster than Npu DnaE, 12 °C [4]: 6 fold
- trans-splicing activity, fold faster than Npu DnaE, 25 °C [4]: 15 fold
- trans-splicing activity, fold faster than Npu DnaE, 37 °C [4]: 10 fold
- trans-splicing speed, fold faster than Npu DnaE, 25 °C [4]: 31 fold
- trans-splicing first order rate constant k, 25 °C [5]: 0.057 s⁻¹
- trans-splicing t1/2, 25 °C [5]: 0.2 min

B4: G1^N(C1A): StreptagII-gpD-linker[N-extein]-Gp41.1^N(C1A)-GGHHHHHH fusion protein (other)
chain: MASWSHPQFEKASKETFTHYQPQGNSDPAHTATAPGGLSAKAPAMTPLMLDTSSRKLVAWDGTTDGAAVGILAVAADQTSTTLTFYKSGTFRYEDVLWPEAASDETKKRTAFAGTAISIVGSTRSGYALDLKTQVQTPQGMKEISNIQVGDLVLSNTGYNEVLNVFPKSKKKSYKITLEDGKEIICSEEHLFPTQTGEMNISGGLKEGMCLYVKEGGHHHHHH
- C-terminal cleavage k, 25 °C [6]: 0.000595 s⁻¹
- C-terminal cleavage t1/2, 25 °C [6]: 19.4 min

B5: N1^N: StreptagII-gpD-linker[N-extein]-NrdJ1^N-GGHHHHHH fusion protein (other)
chain: MASWSHPQFEKASKETFTHYQPQGNSDPAHTATAPGGLSAKAPAMTPLMLDTSSRKLVAWDGTTDGAAVGILAVAADQTSTTLTFYKSGTFRYEDVLWPEAASDETKKRTAFAGTAISIVGSGTNPCCLVGSSEIITRNYGKTTIKEVVEIFDNDKNIQVLAFNTHTDNIEWAPIKAAQLTRPNAELVELEINTLHGVKTIRCTPDHPVYTKNRDYVRADELTDDDELVVAIGGHHHHHH
- splice product formation at 5 minutes, 25 °C [7]: ~90%
- trans-splicing speed, fold faster than Npu DnaE, 25 °C [7]: 9 fold
- trans-splicing first order rate constant k, 25 °C [8]: 0.062 s⁻¹
- trans-splicing t1/2, 25 °C [8]: 0.333 min

B6: N1^N(C1A): StreptagII-gpD-linker[N-extein]-NrdJ1^N(C1A)-GGHHHHHH fusion protein (other)
chain: MASWSHPQFEKASKETFTHYQPQGNSDPAHTATAPGGLSAKAPAMTPLMLDTSSRKLVAWDGTTDGAAVGILAVAADQTSTTLTFYKSGTFRYEDVLWPEAASDETKKRTAFAGTAISIVGSGTNPCALVGSSEIITRNYGKTTIKEVVEIFDNDKNIQVLAFNTHTDNIEWAPIKAAQLTRPNAELVELEINTLHGVKTIRCTPDHPVYTKNRDYVRADELTDDDELVVAIGGHHHHHH
- C-terminal cleavage k, 25 °C [9]: 0.00027 s⁻¹
- C-terminal cleavage t1/2, 25 °C [9]: 43 min

B7: G8^N: StreptagII-gpD-linker[N-extein]-Gp41.8^N-GGHHHHHH fusion protein (other)
chain: MASWSHPQFEKASKETFTHYQPQGNSDPAHTATAPGGLSAKAPAMTPLMLDTSSRKLVAWDGTTDGAAVGILAVAADQTSTTLTFYKSGTFRYEDVLWPEAASDETKKRTAFAGTAISIVGSSQLNRCLSLDTMVVTNGKAIEIRDVKVGDWLESECGPVQVTEVLPIIKQPVFEIVLKSGKKIRVSANHKFPTKDGLKTINSGLKVGDFLRSRAKGGHHHHHH
- splice product formation at 5 minutes, 25 °C [10]: ~90%
- trans-splicing speed, fold faster than Npu DnaE, 25 °C [10]: 6 fold
- trans-splicing first order rate constant k, 25 °C [11]: 0.017 s⁻¹
- trans-splicing t1/2, 25 °C [11]: 0.667 min

B8: G8^N(C1A): StreptagII-gpD-linker[N-extein]-Gp41.8^N(C1A)-GGHHHHHH fusion protein (other)
chain: MASWSHPQFEKASKETFTHYQPQGNSDPAHTATAPGGLSAKAPAMTPLMLDTSSRKLVAWDGTTDGAAVGILAVAADQTSTTLTFYKSGTFRYEDVLWPEAASDETKKRTAFAGTAISIVGSSQLNRALSLDTMVVTNGKAIEIRDVKVGDWLESECGPVQVTEVLPIIKQPVFEIVLKSGKKIRVSANHKFPTKDGLKTINSGLKVGDFLRSRAKGGHHHHHH
- C-terminal cleavage k, 25 °C [12]: 9.5e-05 s⁻¹
- C-terminal cleavage t1/2, 25 °C [12]: 122 min

Reference: patent US20150232507A1 (ERA BIOTECH S A, published 2015)
